Source: patent US20240352102A1 (UNITED STATES GOVERNMENT AS REPRESENTED BY THE DEPARTMENT …, published 2024)

Tests used:
Experiment in all cases: peptide microarray
Peptide_080 = molecular target: T1, Peptide_080
T1 peptide: FKDRVQSKIGSLDNI

Peptide_087 = molecular target: T2, Peptide_087
T2 peptide: HKLTFRENAKAKTDH

Peptide_086 = molecular target: T3, Peptide_086
T3 peptide: KIETHKLTFRENAKA

Peptide_077 = molecular target: T4, Peptide_077
T4 peptide: GGQVEVKSEKLDFKD

Peptide_091 = molecular target: T5, Peptide_091
T5 peptide: AEIVYKSPVVSGDTS

Peptide_097 = molecular target: T6, Peptide_097
T6 peptide: TGSIDMVDSPQLATL

Peptide_082 = molecular target: T7, Peptide_082
T7 peptide: IGSLDNITHVPGGGN

Peptide_076 = molecular target: T8, Peptide_076
T8 peptide: HKPGGGQVEVKSEKL

Peptide_094 = molecular target: T9, Peptide_094
T9 peptide: DTSPRHLSNVSSTGS

Peptide_095 = molecular target: T10, Peptide_095
T10 peptide: RHLSNVSSTGSIDMV

Peptide_101 = molecular target: T11, Peptide_101
T11 peptide: TLADEVSASLAKQGL

Peptide_083 = molecular target: T12, Peptide_083
T12 peptide: DNITHVPGGGNKKIE

Peptide_075 = molecular target: T13, Peptide_075
T13 peptide: GNIHHKPGGGQVEVK

Peptide_081 = molecular target: T14, Peptide_081
T14 peptide: VQSKIGSLDNITHVP

Peptide_090 = molecular target: T15, Peptide_090
T15 peptide: TDHGAEIVYKSPVVS

Peptide_096 = molecular target: T16, Peptide_096
T16 peptide: NVSSTGSIDMVDSPQ

Peptide_088 = molecular target: T17, Peptide_088
T17 peptide: FRENAKAKTDHGAEI

Peptide_084 = molecular target: T18, Peptide_084
T18 peptide: HVPGGGNKKIETHKL

Peptide_078 = molecular target: T19, Peptide_078
T19 peptide: EVKSEKLDFKDRVQS

Peptide_092 = molecular target: T20, Peptide_092
T20 peptide: YKSPVVSGDTSPRHL

Peptide_100 = molecular target: T21, Peptide_100
T21 peptide: ATLADEVSASLAKQG

Peptide_079 = molecular target: T22, Peptide_079
T22 peptide: EKLDFKDRVQSKIGS

Peptide_089 = molecular target: T23, Peptide_089
T23 peptide: AKAKTDHGAEIVYKS

Peptide_093 = molecular target: T24, Peptide_093
T24 peptide: VVSGDTSPRHLSNVS

Peptide_044 = molecular target: T25, Peptide_044
T25 peptide: SPGTPGSRSRTPSLP

Peptide_045 = molecular target: T26, Peptide_045
T26 peptide: PGSRSRTPSLPTPPT

Peptide_043 = molecular target: T27, Peptide_043
T27 peptide: SSPGSPGTPGSRSRT

Peptide_058 = molecular target: T28, Peptide_058
T28 peptide: SKIGSTENLKHQPGG

Peptide_041 = molecular target: T29, Peptide_041
T29 peptide: KSGDRSGYSSPGSPG

Peptide_046 = molecular target: Peptide_046
Peptide_073 = molecular target: T30, Peptide_073
T30 peptide: VTSKCGSLGNIHHKP

Peptide_037 = molecular target: T31, Peptide_037
T31 peptide: KTPPAPKTPPSSGEP

Peptide_069 = molecular target: T32, Peptide_069
T32 peptide: GGGSVQIVYKPVDLS

Peptide_053 = molecular target: T33, Peptide_053
T33 peptide: SAKSRLQTAPVPMPD

Peptide_070 = molecular target: T34, Peptide_070
T34 peptide: VQIVYKPVDLSKVTS

Peptide_065 = molecular target: T35, Peptide_065
T35 peptide: NVQSKCGSKDNIKHV

Peptide_052 = molecular target: T36, Peptide_052
T36 peptide: KSPSSAKSRLQTAPV

Peptide_064 = molecular target: T37, Peptide_064
T37 peptide: LDLSNVQSKCGSKDN

Peptide_040 = molecular target: T38, Peptide_040
T38 peptide: GEPPKSGDRSGYSSP

Peptide_067 = molecular target: T39, Peptide_067
T39 peptide: KDNIKHVPGGGSVQI

Peptide_039 = molecular target: T40, Peptide_039
T40 peptide: PPSSGEPPKSGDRSG

Peptide_072 = molecular target: T41, Peptide_072
T41 peptide: DLSKVTSKCGSLGNI

Peptide_062 = molecular target: T42, Peptide_062
T42 peptide: KVQIINKKLDLSNVQ

Peptide_038 = molecular target: T43, Peptide_038
T43 peptide: APKTPPSSGEPPKSG

Peptide_049 = molecular target: T44, Peptide_049
T44 peptide: EPKKVAVVRTPPKSP

Peptide_057 = molecular target: T45, Peptide_057
T45 peptide: KNVKSKIGSTENLKH

Measured: binding result

B1: mAb TRC35 (antibody, V domains shown)
VH: QVQLQQPGTELVKPGASVKLSCKASGYTFTSYWLQWVKQRPGQGLEWIGEIDPSDSYTNYNQKFKGKATLTVDTSSSTAYMQLSSLTSEDSAVYYCATLTGSWGQGTTLAVSS
VL: DVLLTQTPLSLPVSLGDQASISCRASQSIVDSNGNTFLEWYLQKSGQSPKVLIYKVSNRFSGVPDRFSGRGSGTDFTLKISRVEAEDLGVYYCFQGSHVPYTFGGGTKLEIK
notes: Mouse hybridoma monoclonal antibody raised in tau knockout mice against tau/poly(A) RNA complexes; IgG1 isotype, kappa light chain; also called TRC35 monoclonal antibody; hybridoma clone #35
no binding (tested: 1 ug/ml): all assays above
